According to patent US20210139907, “MATERIALS AND METHODS FOR THE DELIVERY OF THERAPEUTIC NUCLEIC ACIDS TO TISSUES” (UNIVERSITY OF MIAMI, published 2021):

Target: TMED6 (Homo sapiens, UniProt Q8WW62 Q8WW62:22-240)
Assay: competition; recombinant TMED6 (aptamer/protein molar ratio 1/1-1/10) dose-dependently inhibits aptamer staining of human pancreas sections
Conditions: tags: HuProt v2.0 protein array (Arrayit); label: Cy3
Method: To identify the target of aptamer 1-717, protein arrays (HuProt™v2.0, Arrayit) were used. These protein arrays contains more than 19,000 human recombinant proteins allowing, by informatics analysis, the identification of the cognate protein of antibodies, peptides, or protein. This technology has been adapted for the identification of aptamer's ligands. Briefly, pre-blocked arrays were hybridized with 1 μg of cy3 labeled 1-717 or m12-3773 in blocking buffer for 30′ at RT. Arrays were washed, read in triplicate on a Genepix microarray reader and analyzed by an ad hoc generated software. This software 1) acquires the data from the gpr file, 2) adds a description column with (GeneID, Control, blank, ND), 2) use a optimized “plotArray” function modified in several points (the script was implemented for a specific protein array, plus some problem in UTF file format), 3) performs a quality control that includes a microarray image rebuilding the generation of MA plots, 4) normalized the data and substracts the background; and 5) analyze the differential expression between arrays via graphs of p-value distribution, volcano plot, and analysis of significant modulation by t-test. This analysis proposed TMED6 (NM144676.1, protein id Q8WW62) as the most likely ligand of aptamer 1-717. […] Images were acquired by a fluorescence microscope and aptamer binding quantified by cellprofiler.

Sequence of TMED6 (Q8WW62 22-240, one chain of several): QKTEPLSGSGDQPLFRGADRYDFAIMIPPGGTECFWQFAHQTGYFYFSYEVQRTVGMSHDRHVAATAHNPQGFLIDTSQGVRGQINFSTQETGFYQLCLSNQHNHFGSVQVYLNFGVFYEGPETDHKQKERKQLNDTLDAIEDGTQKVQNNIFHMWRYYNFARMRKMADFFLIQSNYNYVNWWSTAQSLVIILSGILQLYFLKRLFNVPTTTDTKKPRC

B1: 1-717 (ssRNA)
RNA: GGAGGACGAUGCGGUAAUUCUCAGGAGGUGCGGAACGGGAUAUGGAUUGUUCGCCAGACGACUCGCUGAGGAUCCGAGA
modifications: 2'-F pyrimidines (2'-F-dCTP, 2'-F-dUTP in selection transcription)
- binding result: binds
